Consider two substances from patent US20110239331A1.

Assay [1] deals with bee brain calcium channels (Apis mellifera brain neurons, ICa) (Apis mellifera). Description: cell-based or functional assay.
The target in assay [2] is mouse trigeminal (sensory) neuron calcium channels (ICa) (mouse). Description: cell-based or functional assay.

Regarding omega-atracotoxin-Hv2a (peptide), in assay [1], the EC50 for inhibition of ICa stood at 0.15 nM and the preference for insect versus vertebrate calcium channels (against m4) was over 50000 fold.
As for “ω-agatoxin-IVA (from UniProt P30288 1-48) (peptide)”, in assay [1], the EC50 for inhibition of ICa in bee neurons worked out at 10 nM and the preference for insect versus vertebrate calcium channels (against m4) was 2 fold. Moreover, in assay [2], the EC50 for inhibition of a component of ICa in mouse sensory neurons was found to be 20 nM and the maximum ICa inhibition in mouse sensory neurons stood at 40%.
